For data set [1], the target named is His-tagged TRIM25-CC (coiled-coil domain of TRIM25, 189-379) (human, UniProt Q14258 189-379). Briefly: BLI; […] (~12 ug/ml); […]; 25 °C; 50 mM HEPES pH 7.5, 150 mM NaCl, 1 mM DTT, 0.005% Tween-20; […]. To be noted: both partners purified.
The data set “crystal structure” deals with the molecule itself. In words: crystal structure.
The data set “SEC + SEC-MALS” deals with the molecule itself. Briefly: SEC + SEC-MALS.

B1: NS1-ED (effector domain of NS1, 79-230) (domain or fragment)
chain: MTMASVPASRYLTDMTLEEMSRDWSMLIPKQKVAGPLCIRMDQAIMDKNIILKANFSVIFDRLETLILLRAFTEEGAIVGEISPLPSLPGHTAEDVKNAVGVLIGGLEWNDNTVRVSETLQRFAWRSSNENGRPPLTPKQKREMAGTIRSEV
For the molecule B1, in data set [1], binding was characterised by a dissociation constant (Kd) of 16.1 µM.

B2: TRIM25-CC (coiled-coil domain of TRIM25, 189-379), tag removed (domain or fragment)
chain: ASLSQASADLEATLRHKLTVMYSQINGASRALDDVRNRQQDVRMTANRKVEQLQQEYTEMKALLDASETTSTRKIKEEEKRVNSKFDTIYQILLKKKSEIQTLKEEIEQSLTKRDEFEFLEKASKLRGISTKPVYIPEVELNHKLIKGIHQSTIDLKNELKQCIGRLQEPTPSSGDPGEHDPASTHKSTRP
For B2, the binding result in the data set “crystal structure” is recorded as “binds”.

B3: Human TRIM25 CC-PRYSPRY domain (residues 189-630) (domain or fragment)
chain: ASLSQASADLEATLRHKLTVMYSQINGASRALDDVRNRQQDVRMTANRKVEQLQQEYTEMKALLDASETTSTRKIKEEEKRVNSKFDTIYQILLKKKSEIQTLKEEIEQSLTKRDEFEFLEKASKLRGISTKPVYIPEVELNHKLIKGIHQSTIDLKNELKQCIGRLQEPTPSSGDPGEHDPASTHKSTRPVKKVSKEEKKSKKPPPVPALPSKLPTFGAPEQLVDLKQAGLEAAAKATSSHPNSTSLKAKVLETFLAKSRPELLEYYIKVILDYNTAHNKVALSECYTVASVAEMPQNYRPHPQRFTYCSQVLGLHCYKKGIHYWEVELQKNNFCGVGICYGSMNRQGPESRLGRNSASWCVEWFNTKISAWHNNVEKTLPSTKATRVGVLLNCDHGFVIFFAVADKVHLMYKFRVDFTEALYPAFWVFSAGATLSICSPK
notes: also called TRIM25 coiled-coil-PRY-SPRY
As to B3, in “SEC + SEC-MALS”, the “stoichiometry N” value worked out at 2.

The values are drawn from paper PMC5940772 (Nature Communications, 2018).
